T1: N-cadherin GFP11 (chick, UniProt P10288 165-912)
T1 construct: Synthesized by GenScript; also called N-cad GFP11; N-cad GFP 11; source: CHO cells, transfected, in cells; chick embryo, electroporated in ovo into trigeminal placode cells; not shown: split GFP subunit 11 (GFP11), N-terminal, kept
T1 sequence (looked up): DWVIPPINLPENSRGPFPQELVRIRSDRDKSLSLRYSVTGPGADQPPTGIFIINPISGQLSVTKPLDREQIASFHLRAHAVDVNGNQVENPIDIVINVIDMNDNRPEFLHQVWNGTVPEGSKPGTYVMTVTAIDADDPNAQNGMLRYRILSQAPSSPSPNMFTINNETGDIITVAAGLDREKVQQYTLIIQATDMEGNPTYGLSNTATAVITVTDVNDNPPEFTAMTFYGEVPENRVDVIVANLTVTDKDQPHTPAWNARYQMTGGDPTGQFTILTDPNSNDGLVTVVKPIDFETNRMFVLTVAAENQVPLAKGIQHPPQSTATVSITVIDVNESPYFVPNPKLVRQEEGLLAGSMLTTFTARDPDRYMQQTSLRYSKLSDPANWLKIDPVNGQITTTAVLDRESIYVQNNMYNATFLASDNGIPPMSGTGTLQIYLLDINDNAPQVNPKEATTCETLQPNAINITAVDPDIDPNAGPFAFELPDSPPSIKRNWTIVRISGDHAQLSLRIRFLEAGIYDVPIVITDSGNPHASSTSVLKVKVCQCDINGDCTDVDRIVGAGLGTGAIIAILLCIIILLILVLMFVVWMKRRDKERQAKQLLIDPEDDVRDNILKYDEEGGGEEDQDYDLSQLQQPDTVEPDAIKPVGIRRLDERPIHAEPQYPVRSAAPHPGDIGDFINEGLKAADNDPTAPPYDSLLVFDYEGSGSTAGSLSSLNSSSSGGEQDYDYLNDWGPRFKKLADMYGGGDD

B1: N-cadherin GFP1-10 (natural protein, chick, UniProt P10288 165-912, looked up)
chain: T1 sequence (looked up)
notes: Synthesized by GenScript; also called N-cad GFP1-10; N-cad GFP 1-10; source: CHO cells, transfected, in cells; chick embryo, electroporated in ovo into trigeminal placode cells; not shown: split GFP subunits 1-10 (GFP1-10), N-terminal, kept
B2: Cadherin-7 GFP1-10 (natural protein, chick, UniProt Q90763 48-785, looked up)
chain: SWVWNQFFVLEEYMGSDPLYVGKLHSDVDKGDGSIKYILSGEGASSIFIIDENTGDIHATKRLDREEQAYYTLRAQAHDRLTNKPVEPESEFVIKIQDINDNEPKFLDGPYTAGVPEMSPVGTSVVQVTATDADDPTYGNSARVVYSILQGQPYFSVEPKTGIIKTALPNMDREAKDQYLLVIQAKDMVGQNGGLSGTTSVTVTLTDVNDNPPRFPRRSYQYNVPESLPLASVVARIKAADADVGPNAEMEYKIVDGDGLGVFKISVDKDTQEGIITIQKELDFEAKTSYTLRIEAANMHVDPRFLSLGPFSDMTTVKIIVEDVDEPPVFTSRLYSMVVSEAAKVGTIIGTVAAHDPDASNSPVRYSIDRNTDLERYFNIDANSGVITTAKSLDRETNAVHNITVLAMESQNPAQIGRGYVAITILDINDNAPEFAMEYETTVCENAQPGQIIQKISAIDKDDPPNGHQFYFSLTAEAANNHNFTLQDNKDNTATVLTRRNGFRRQEQSVFYLPIFIVDSGSPSLSSTNTLTIRVCDCDADGIAQTCNAEAYILPAGLSTGALIAILACVLTLLVLVLLIVTMRRRKKEPLIFDEERDIRENIVRYDDEGGGEEDTEAFDMAALRNLNIIRDTKTRRDVTPEIQFLSRPTFKSIPDNVIFREFIWERLKEADVDPCAPPYDSLQTYAFEGNGSVAESLSSLDSISSNSDQNYDYLSDWGPRFKRLADMYGSGPDCLYS
notes: Synthesized by GenScript; also called Cad7 GFP1-10; source: CHO cells, transfected, in cells; chick embryo, electroporated in ovo into premigratory neural crest cells; not shown: split GFP subunits 1-10 (GFP1-10), N-terminal, kept
B3: Cadherin-7 GFP11 (natural protein, chick, UniProt Q90763 48-785, looked up)
chain: B2 chain
notes: Synthesized by GenScript; also called Cad7 GFP11; Cad711; source: CHO cells, transfected, in cells; chick embryo, electroporated in ovo into premigratory neural crest cells; not shown: split GFP subunit 11 (GFP11), N-terminal, kept

How the values were obtained:
Experiment in all cases: split reporter (BiFC, NanoBiT); GRASP (split GFP1-10 / GFP11 on the cadherin extracellular domain); both constructs co-transfected into CHO cells (in cis); GFP fluorescence by confocal imaging, GFP+ cells/DAPI+ cells
Settings in all cases: partners not purified
N-cadherin GFP11 = target: T1, N-cadherin GFP11
Cadherin-7 GFP11 = target: B3
N-cadherin GFP1-10 = target: B1

Row | percent GFP-positive cells (GFP+ cells/DAPI+ cells) (N-cadherin GFP11) [%] | percent GFP-positive cells (GFP+ cells/DAPI+ cells) (Cadherin-7 GFP11) [%] | percent GFP-positive cells (GFP+ cells/DAPI+ cells) (N-cadherin GFP1-10) [%] | Binder
1 | 13.2 |  |  | B1
2 | 8.9 | 10.5 |  | B2
3 |  |  | 5.76 | B3

From paper PMC9475207, “Neural crest cell-placodal neuron interactions are mediated by Cadherin-7 and N-cadherin during early chick trigeminal ganglion assembly” (F1000Research, 2022)
